System: PL-FXa-b2AR fusion protein (ED-FXa cleavage site-beta2-adrenergic receptor) expressed on transiently transfected HEK293 cells

Factor Xa
EFC activity as relative luminescent units (RLU): a difference in about 30000 RLUs was observed over a range in concentration of FXa of about 10^-3 to 10^1 µg/mL | readings (chemiluminescence, β-galactosidase enzyme fragment complementation after cleavage): the transiently infected cells showed an increase in the readings from 0.01 ng/well to 1000 ng/well of Factor Xa

Reference: patent US7452690
